Laboratory results from PMC11077089, “Molecular basis of A. thaliana KEOPS complex in biosynthesizing tRNA t6A”.
Changes are numbered by the printed parent chain.

Experiments:
Assay in all cases: MST; MST: 20 mM PBS pH 7.5, 300 mM NaCl, 0.05% Tween 20, 25 C, 50 nM RNA; EMSA: 20 mM Tris-HCl pH 7.5, 300 mM NaCl, 5 mM b-mercaptoethanol, 20% glycerol, agarose gel in Tris-glycine pH 8.0 (8.5 for FAM-RNA), 4 C
[1] = molecular target: T1, KAE1;BUD32 K55E;CGI121;PCC1 (Arabidopsis thaliana;Arabidopsis …, UniProt O49653;Q94K14;Q6NMZ4;Q8GWD7 1-353;1-226;1-172;1-96, |K55E||); conditions: protein: recombinant;recombinant;recombinant;recombinant; tags: none (6His on partner PCC1);;6His (C-term);6His (C-term); chain copies: 2;2;2;2; label: 5' 6-FAM; tRNA cloverleaf
T1 sequence 1: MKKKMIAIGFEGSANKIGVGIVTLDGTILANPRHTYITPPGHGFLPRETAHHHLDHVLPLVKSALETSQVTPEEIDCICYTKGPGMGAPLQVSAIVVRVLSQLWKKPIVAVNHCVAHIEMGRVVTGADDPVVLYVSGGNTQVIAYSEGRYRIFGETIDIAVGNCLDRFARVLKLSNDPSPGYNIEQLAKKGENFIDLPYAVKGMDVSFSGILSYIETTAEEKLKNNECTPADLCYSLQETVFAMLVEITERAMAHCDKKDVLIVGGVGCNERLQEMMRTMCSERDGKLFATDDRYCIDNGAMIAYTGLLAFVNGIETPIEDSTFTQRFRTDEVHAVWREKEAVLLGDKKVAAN
T1 sequence 2: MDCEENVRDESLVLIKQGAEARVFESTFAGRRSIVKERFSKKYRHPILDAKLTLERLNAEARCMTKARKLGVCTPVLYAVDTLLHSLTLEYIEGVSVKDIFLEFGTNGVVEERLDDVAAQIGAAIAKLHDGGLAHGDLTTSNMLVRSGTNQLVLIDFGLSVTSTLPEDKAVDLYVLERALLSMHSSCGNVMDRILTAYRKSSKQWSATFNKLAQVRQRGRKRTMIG
T1 sequence 3: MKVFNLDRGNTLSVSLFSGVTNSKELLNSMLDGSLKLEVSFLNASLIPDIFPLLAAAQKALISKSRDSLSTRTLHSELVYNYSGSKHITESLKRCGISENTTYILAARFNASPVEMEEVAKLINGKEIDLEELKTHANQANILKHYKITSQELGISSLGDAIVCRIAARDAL
T1 sequence 4: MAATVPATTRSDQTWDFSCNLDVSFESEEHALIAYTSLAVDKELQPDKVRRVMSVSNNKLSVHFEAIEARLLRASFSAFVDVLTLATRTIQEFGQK

[2] = molecular target: T2, KAE1;BUD32 K51E;CGI121;PCC1 (Arabidopsis thaliana;Arabidopsis …, UniProt O49653;Q94K14;Q6NMZ4;Q8GWD7 1-353;1-226;1-172;1-96, |K51E||); conditions: protein: recombinant;recombinant;recombinant;recombinant; tags: none (6His on partner PCC1);;6His (C-term);6His (C-term); chain copies: 2;2;2;2; label: 5' 6-FAM; tRNA cloverleaf
T2 sequence 1: T1 sequence 1
T2 sequence 2: T1 sequence 2 with K51E, E55K
T2 sequence 3: T1 sequence 3
T2 sequence 4: T1 sequence 4

[3] = molecular target: T3, KAE1 mutant-1;BUD32;CGI121;PCC1 (Arabidopsis thaliana;Arabidopsis …, UniProt O49653;Q94K14;Q6NMZ4;Q8GWD7 1-353;1-226;1-172;1-96, Y36R;I37K;T38R;P39R;P40R;G41W;H42D|||); conditions: protein: recombinant;recombinant;recombinant;recombinant; tags: ;none (6His on partner CGI121);6His (C-term);6His (C-term); chain copies: 2;2;2;2; label: 5' 6-FAM; tRNA cloverleaf
T3 sequence 1: T1 sequence 1 with Y36R, I37K, T38R, P39R, P40R, G41W, H42D
T3 sequence 2: T1 sequence 2 with E55K
T3 sequence 3: T1 sequence 3
T3 sequence 4: T1 sequence 4

[4] = molecular target: T4, KAE1;BUD32 S163R;CGI121;PCC1 (Arabidopsis thaliana;Arabidopsis …, UniProt O49653;Q94K14;Q6NMZ4;Q8GWD7 1-353;1-226;1-172;1-96, |S163R||); conditions: protein: recombinant;recombinant;recombinant;recombinant; tags: none (6His on partner PCC1);;6His (C-term);6His (C-term); chain copies: 2;2;2;2; label: 5' 6-FAM; tRNA cloverleaf
T4 sequence 1: T1 sequence 1
T4 sequence 2: T1 sequence 2 with E55K, S163R
T4 sequence 3: T1 sequence 3
T4 sequence 4: T1 sequence 4

B1: 5'-6FAM-tRNAArgCCU (structured_RNA)
RNA: GCGCCUGUAGCUCAGUGGAUAGAGCGUCUGUUUCCUAAGCAGAAGGUCGUAGGUUCGACCCCUACCUGGCGCGCCA
B1 was tested. Which Kd [1] did it give?
The Kd was 104 ± 15.2 µM.

What about the Kd [2] of the same binder?
Its Kd is 29.8 ± 10.7 µM.

What about the Kd [3] of the same binder?
The Kd was 5.27 ± 1.2 µM.

What about the Kd [4] of the same binder?
The Kd was 330 ± 11.1 µM.
